The text below walks through data of IntAct's records for PubMed 10357812.

The labels stand for the following.
B1: Synaptojanin-2 (Rattus norvegicus (Rat)), O55207-3 (parent)
chain: MALSKGLRLLARLDPTGPSSVLLEARGRGDCLLFEAGAVATLAPEEKEVIKGLYGKPTDAYGCLGELSLKSGGVPLSFLVLVTGCTSVGRIPDAEIYKITGTEFYPLQEEAKEEDRLPALKKILSSGVFYFAWPNDGACFDLTIRAQKQGDDCSEWGTSFFWNQLLHVPLRQHQVNCHDWLLKVICGVVTIRTVYASHKQAKACLISRISCERAGARFLTRGVNDDGHVSNFVETEQAIYMDDGVSSFVQIRGSVPLFWEQPGLQVGSHHLRLHRGLEANAPAFERHMVLLKEQYGQQVVVNLLGSRGGEEVLNRAFKKLLWASCHAGDTPMINFDFHQFAKGRKLEKLENLLRPQLKLHWDDFGVFAKGENVSPRFQKGTLRMNCLDCLDRTNTVQCFIALEVLHLQLESLGLNSKPITDRFVESFKAMWSLNGHGLSKVFTGSRALEGKAKVGKLKDGARSMSRTIQSNFFDGVKQEAIKLLLVGDVYNEESTDKGRMLLDNTALLGLGSNKQNSLSGMLDGKATPRILKAMTERQSEFTNFKRIQIAMGTWNVNGGKQFRSNLLGTTELTDWLLDAPQLSGAVDSQDDGGPADIFAVGFEEMVELSAGNIVNASTTNRKMWGEQLQKAISRSHRYILLTSAQLVGVCLYIFVRPYHVPFIRDVAIDTVKTGMGGKAGNKGAVGIRFQFHSTSFCFICSHLTAGQSQVKERNEDYREITHKLSFPSGRNIFSHDYVFWCGDFNYRIDLTYEEVFYFVKRQDWKKLMEFDQLQLQKSSGKIFKDFHEGTINFGPTYKYDVGSAAYDTSDKCRTPAWTDRVLWWRKKHPYDKTAGELNLLDSDLDGDANIRHTWSPGTLKYYGRAELQASDHRPVLAIVEVEVQEVDVGARERVFQEVSSVQGPLDATVIVNLQSPTLEERNEFPEDLRTELMQTLGNYGTIILVRINQGQMLVTFADSHSALSVLDVDGMKVKGRAVKIRPKTKDWLEGLREELIRKRDSMAPVSPTANSCLLEENFDFTSLDYESEGDVLEDDEDYLADEFGQPVVSDSELGGDDSSDTMSASTPASKSPALAKKKQHPTYKDDADLMTLKLELEVAGNFRHRSPSRSLSVPNRPRPPHPPQRPPPPTGLMVKKSASDASISSGTHGQYSILQTAKLLPGAPQQPPKARTGISKPYNVKQIKTTNAQEAEAAIRCLLEAGGGVPESAPGATPLRNQGSSKPEASLGPPVLPRRPVPRVPTMKKPTLRRTGKIVFCSSSQASQPCSLLQRHEFVRTVAAQRLTPVDASGSSV
partner: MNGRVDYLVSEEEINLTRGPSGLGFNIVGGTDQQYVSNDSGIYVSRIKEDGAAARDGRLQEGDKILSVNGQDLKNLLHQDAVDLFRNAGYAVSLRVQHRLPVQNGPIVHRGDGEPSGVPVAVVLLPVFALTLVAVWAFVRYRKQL

This assay covers variants of B1. The following applies: with syj2b_rat Synj2bp.
Turning to S1291A, the “effect of a mutation on the interaction” value is “disrupting interaction”.
The same measure for V1293A: “disrupting interaction”; for G1290A: “disrupting interaction”.
